Assay results from PMC8427231, “Mechanism of dimerization and structural features of human LI-cadherin” (The Journal of Biological Chemistry, 2021).
Changes are numbered by the printed parent chain.

T1: human LI-cadherin EC1-5 (human)
T1 chain: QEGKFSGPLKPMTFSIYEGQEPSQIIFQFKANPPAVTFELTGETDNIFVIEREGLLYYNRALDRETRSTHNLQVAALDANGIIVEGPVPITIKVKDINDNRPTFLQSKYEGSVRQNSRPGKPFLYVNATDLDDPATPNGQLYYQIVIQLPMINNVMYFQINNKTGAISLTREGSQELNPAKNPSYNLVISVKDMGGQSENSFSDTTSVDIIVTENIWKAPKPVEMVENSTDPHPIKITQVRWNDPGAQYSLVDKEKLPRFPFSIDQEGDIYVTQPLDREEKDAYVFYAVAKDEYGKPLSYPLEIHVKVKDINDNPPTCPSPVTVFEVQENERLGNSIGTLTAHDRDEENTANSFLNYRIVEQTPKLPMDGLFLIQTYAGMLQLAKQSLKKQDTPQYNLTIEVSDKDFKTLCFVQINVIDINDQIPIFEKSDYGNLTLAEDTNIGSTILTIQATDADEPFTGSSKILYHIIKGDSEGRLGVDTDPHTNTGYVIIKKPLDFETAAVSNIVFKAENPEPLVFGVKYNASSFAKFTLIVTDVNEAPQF

B1: human LI-cadherin EC1-5 (domain or fragment)
chain: T1 chain
modifications: N-glycosylated (Expi293F), Ca2+-bound; limits by convention: mature N-terminus as in PDB 7CYM (EC1-4), end of the UniProt Cadherin 5 domain; His tag omitted; homodimerizes / N-glycosylated …
B2: human LI-cadherin EC1-2 (domain or fragment)
chain: GPLKPMTFSIYEGQEPSQIIFQFKANPPAVTFELTGETDNIFVIEREGLLYYNRALDRETRSTHNLQVAALDANGIIVEGPVPITIKVKDINDNRPTFLQSKYEGSVRQNSRPGKPFLYVNATDLDDPATPNGQLYYQIVIQLPMINNVMYFQINNKTGAISLTREGSQELNPAKNPSYNLVISVKDMGGQSENSFSDTTSVDIIVTE
notes: human LI-cadherin, extracellular cadherin repeats 1-2; source: Expi293F cells, culture supernatant, purified (Ni-NTA IMAC, SEC)
B3: human LI-cadherin EC1-4 N176A (domain or fragment)
chain: QEGKFSGPLKPMTFSIYEGQEPSQIIFQFKANPPAVTFELTGETDNIFVIEREGLLYYNRALDRETRSTHNLQVAALDANGIIVEGPVPITIKVKDINDNRPTFLQSKYEGSVRQNSRPGKPFLYVNATDLDDPATPNGQLYYQIVIQLPMINAVMYFQINNKTGAISLTREGSQELNPAKNPSYNLVISVKDMGGQSENSFSDTTSVDIIVTENIWKAPKPVEMVENSTDPHPIKITQVRWNDPGAQYSLVDKEKLPRFPFSIDQEGDIYVTQPLDREEKDAYVFYAVAKDEYGKPLSYPLEIHVKVKDINDNPPTCPSPVTVFEVQENERLGNSIGTLTAHDRDEENTANSFLNYRIVEQTPKLPMDGLFLIQTYAGMLQLAKQSLKKQDTPQYNLTIEVSDKDFKTLCFVQINVID
notes: human LI-cadherin, extracellular cadherin repeats 1-4, point mutant; Parent: m4; source: Expi293F cells, culture supernatant, purified (Ni-NTA IMAC, SEC)
B4: human LI-cadherin EC1-4 N371A (domain or fragment)
chain: B3 chain with A154N, N349A
notes: as for B3
B5: human LI-cadherin EC1-4 L355A (domain or fragment)
chain: B3 chain with A154N, L333A
notes: as for B3
B6: human LI-cadherin EC1-4 N222A (domain or fragment)
chain: B3 chain with A154N, N200A
notes: as for B3
B7: human LI-cadherin EC1-4 Q404A (domain or fragment)
chain: B3 chain with A154N, Q382A
notes: as for B3
B8: human LI-cadherin EC1-4 V210A (domain or fragment)
chain: B3 chain with A154N, V188A
notes: as for B3
B9: human LI-cadherin EC1-4 (domain or fragment)
chain: B3 chain with A154N
modifications: N-glycans (four modelled on chain A, two on chain B of the crystal structure; sites not given)
notes: human LI-cadherin, extracellular cadherin repeats 1-4; Theoretical mass without glycan 49.8 kDa; also called EC1-4WT; WT; source: Expi293F cells, culture supernatant, purified (Ni-NTA IMAC, SEC)
B10: human LI-cadherin EC1-4 Y399A (domain or fragment)
chain: B3 chain with A154N, Y377A
notes: as for B3

Assays:
human LI-cadherin EC1-5 = target: T1, human LI-cadherin EC1-5; assay: AUC; sedimentation velocity (SV-AUC), 20 °C, buffer A (10 mM Hepes-NaOH pH 7.5, 150 mM NaCl, 3 mM CaCl2); EC1-7 at 1-20 μM, EC1-2, EC3-4, EC1-4, EC1-5 at 1-60 μM, EC1-4F224A at 1-120 μM; KD of the monomer-dimer equilibrium (dimer to monomers) from the weight-average sedimentation coefficient, SEDPHAT; details: both partners purified
[1] = target: the molecule itself; assay: as above
[2] = target: the molecule itself; assay: SEC-MALS; Superose 12 10/300 GL, 45 μl injected at 100 μM or 50 μM, eluted at about 4 μM; protein conjugate analysis

Binder | binding result [2] | also measured
B1 | – | Kd (human LI-cadherin EC1-5): 22.8 µM; stoichiometry N (human LI-cadherin EC1-5): 2
B2 | – | Kd [1]: 75 µM; stoichiometry N [1]: 2
B3 | binds | –
B4 | binds | –
B5 | binds | –
B6 | binds | –
B7 | binds | –
B8 | binds | –
B9 | – | Kd [1]: 39.8 µM; stoichiometry N [1]: 2
B10 | binds | –
